Reference: publication PMC9412862

Assays:
[1] = target: NS4b full-length (residues 1-249), C-terminal six-histidine tag (dengue virus serotype 1); test: SEC
[2] = target: NS4b full-length (residues 1-249), C-terminal six-histidine tag (dengue virus serotype 1); test: BLI

Row | Substance | stoichiometry N [1] | Kd [2] [nM]
1 | NS4b full-length (residues 1-249), C-terminal six-histidine tag (natural protein) | 2 | –
2 | helicase domain of DENV NS3 (NS3Hel), residues 178-619, C-terminal 6-histidine tag (domain or fragment) | – | 508
